Measurements from patent publication US20250327097A1, “ORGANISMS PRODUCING LESS CROTONIC ACID” (Global Bioenergies, priority 2021, published 2025).
Residue numbers refer to the chain shown, from its start. Numbers in names are those of the source.

Tested on: 3-methylcrotonic acid
Format: biochemical, Yersinia frederiksenii
Design: key: “+” representing a low increase in activity; “++++” representing a high increase in activity

B1: N287V-N388M-K394R-C430N-L432F-L434W-S436N (protein)
chain: MFLKSLREQINLLKRQGDLRIINRPVDSYLEAAAIIRRSTETKAPVPLMTNIKGYPGCSIVGGLAALSSNPEYPLSRVAMSLGLSTTASAQSIVQYLIDGLKKTPYLPVEIDSNSAPCKQNILRGEDASLAHFPIPQVHQHDGNRYVNTWGVFIVESPDGQWCNWSIQRVQYLNDRQMIALVFPSQHISDIWEEWVKIGKPMPYALVQGCEPIVPYIAGLPLLERNVNEAEYIGALYGKGIEVVKCETHDLRVPASSEVVIEGYFAITREGVEGPFGEFAGYIPNEVSLQPILSITAISWQDDPIWPVVAEGKPVDEYHTCSGIGDAAAIQNVLLTANLPVSFVWVPLYSACHLMIVSINRHWRQTHPDLTSEQLTKKVGDVIHQTRMSIKLPRIVVLDDDVDPADTESLLWALATRIHPERKRYFYESNIFPWLNCYSEEERHNRKGKRVIIDALLPENHGAISSFDYAYPDDIKQRVLMHWETDFSHD
Activity relative to WT: +

B2: I283T-N285P-N287T-Q290E-S322T-N388M-K394R-i421aD-C430A-L432F-L434W-S436N-dG462 (protein)
chain: B1 chain with I283T, N285P, V287T, Q290E, S322T, N430A
Activity relative to WT: ++++

B3: I283T-N285P-N287T-Q290E-S322T-N388M-K394R-C430A-L432F-L434W-S436N-Y438W-dG462 (protein)
chain: B1 chain with I283T, N285P, V287T, Q290E, S322T, N430A, Y438W
Activity relative to WT: ++++

B4: P284E-N388M-K394R-C430N-L432F-L434W-S436N (protein)
chain: B1 chain with P284E, V287N
Activity relative to WT: +

B5: I283T-N285P-N287T-Q290E-S322T-N388M-K394R-C430A-L432F-L434W-S436N-C437T-dG462 (protein)
chain: B1 chain with I283T, N285P, V287T, Q290E, S322T, N430A, C437T
Activity relative to WT: ++++

B6: I283T-N285P-N287T-Q290E-S322T-N388M-K394R-C430A-I431N-L432F-L434W-S436N-dG462 (protein)
chain: B1 chain with I283T, N285P, V287T, Q290E, S322T, N430A, I431N
Activity relative to WT: ++++

B7: I283T-N285P-N287T-Q290E-S322T-N388M-K394R-i421aE-C430A-L432F-L434W-S436N-dG462 (protein)
chain: B1 chain with I283T, N285P, V287T, Q290E, S322T, N430A
Activity relative to WT: ++++

B8: I283T-N285P-N287T-Q290E-S322T-N388M-K394R-C430A-L432F-L434W-S436N-C437L-dG462 (protein)
chain: B1 chain with I283T, N285P, V287T, Q290E, S322T, N430A, C437L
Activity relative to WT: ++++

B9: I283T-N285P-N287T-Q290E-S322T-N388M-K394R-i424aW-C430A-L432F-L434W-S436N-dG462 (protein)
chain: B1 chain with I283T, N285P, V287T, Q290E, S322T, N430A
Activity relative to WT: ++++

B10: I283T-N285P-N287T-Q290E-S322T-N388M-K394R-C430A-I431C-L432F-L434W-S436N-dG462 (protein)
chain: B1 chain with I283T, N285P, V287T, Q290E, S322T, N430A, I431C
Activity relative to WT: ++++

B11: I283T-N285P-N287T-Q290E-S322T-N388M-K394R-C430A-I431K-L432F-L434W-S436N-dG462 (protein)
chain: B1 chain with I283T, N285P, V287T, Q290E, S322T, N430A, I431K
Activity relative to WT: ++++

B12: I283T-N285P-N287T-Q290E-S322T-N388M-K394R-H419A-C430A-L432F-L434W-S436N-dG462 (protein)
chain: B1 chain with I283T, N285P, V287T, Q290E, S322T, H419A, N430A
Activity relative to WT: ++++

B13: I283T-N285P-N287T-Q290E-S322T-N388M-K394R-C430A-I431A-L432F-L434W-S436N-dG462 (protein)
chain: B1 chain with I283T, N285P, V287T, Q290E, S322T, N430A, I431A
Activity relative to WT: ++++

B14: I283T-N285P-N287T-Q290E-S322T-N388M-K394R-C430A-L432F-L434W-S436N-G448C-dG462 (protein)
chain: B1 chain with I283T, N285P, V287T, Q290E, S322T, N430A, G448C
Activity relative to WT: ++++

B15: I283T-N285P-N287T-Q290E-S322T-N388M-K394R-C430A-I431T-L432F-L434W-S436N-dG462 (protein)
chain: B1 chain with I283T, N285P, V287T, Q290E, S322T, N430A, I431T
Activity relative to WT: ++++

B16: D27N-I283T-N285P-N287T-Q290E-S322T-N388M-K394R-C430A-L432F-L434W-S436N-G448T-dG462 (protein)
chain: B1 chain with D27N, I283T, N285P, V287T, Q290E, S322T, N430A, G448T
Activity relative to WT: ++++

B17: I283T-N285P-N287T-Q290E-S322T-N388M-K394R-C430S-L432F-L434W-S436N-dG462 (protein)
chain: B1 chain with I283T, N285P, V287T, Q290E, S322T, N430S
Activity relative to WT: ++++

B18: I283T-N285P-N287T-Q290E-S322T-N388M-K394R-i424aA-C430A-L432F-L434W-S436N-dG462 (protein)
chain: B1 chain with I283T, N285P, V287T, Q290E, S322T, N430A
Activity relative to WT: ++++

B19: I283T-N285P-N287T-Q290E-S322T-N388M-K394R-i421aI-C430A-L432F-L434W-S436N-dG462 (protein)
chain: B1 chain with I283T, N285P, V287T, Q290E, S322T, N430A
Activity relative to WT: ++++

B20: I283T-N285P-N287T-Q290E-S322T-N388M-K394R-i421aP-C430A-L432F-L434W-S436N-dG462 (protein)
chain: B1 chain with I283T, N285P, V287T, Q290E, S322T, N430A
Activity relative to WT: ++++

B21: N332H-N388M-K394R-C430N-L432F-L434W-S436N (protein)
chain: B1 chain with V287N, N332H
Activity relative to WT: +

B22: I283T-N285P-N287T-Q290E-S322T-N388M-K394R-C430A-I431P-L432F-L434W-S436N-dG462 (protein)
chain: B1 chain with I283T, N285P, V287T, Q290E, S322T, N430A, I431P
Activity relative to WT: ++++

B23: I283T-N285P-N287T-Q290E-S322T-N388M-K394R-C430A-L432F-L434W-S436N-C437I-dG462 (protein)
chain: B1 chain with I283T, N285P, V287T, Q290E, S322T, N430A, C437I
Activity relative to WT: ++++

B24: I283T-N285P-N287T-Q290E-S322T-N388M-K394R-C430A-L432F-L434W-S436N-Y438M-dG462 (protein)
chain: B1 chain with I283T, N285P, V287T, Q290E, S322T, N430A, Y438M
Activity relative to WT: ++++

B25: I283T-N285P-N287T-Q290E-S322T-N388M-K394R-C430A-L432F-L434W-S436N-C437M-dG462 (protein)
chain: B1 chain with I283T, N285P, V287T, Q290E, S322T, N430A, C437M
Activity relative to WT: ++++

B26: I283T-N285P-N287T-Q290E-S322T-N388M-K394R-E421L-C430A-L432F-L434W-S436N-dG462 (protein)
chain: B1 chain with I283T, N285P, V287T, Q290E, S322T, E421L, N430A
Activity relative to WT: ++++

B27: I283T-N285P-N287T-Q290E-S322T-N388M-K394R-E421F-C430A-L432F-L434W-S436N-dG462 (protein)
chain: B1 chain with I283T, N285P, V287T, Q290E, S322T, E421F, N430A
Activity relative to WT: ++++

B28: I283T-N285P-N287T-Q290E-S322T-N388M-K394R-C430A-L432F-L434W-S436N-K447T-dG462 (protein)
chain: B1 chain with I283T, N285P, V287T, Q290E, S322T, N430A, K447T
Activity relative to WT: ++++

B29: S322T-N388M-K394R-C430N-L432F-L434W-S436N (protein)
chain: B1 chain with V287N, S322T
Activity relative to WT: +

B30: I283T-N285P-N287T-Q290E-S322T-N388M-K394R-i421aR-C430A-L432F-L434W-S436N-dG462 (protein)
chain: B1 chain with I283T, N285P, V287T, Q290E, S322T, N430A
Activity relative to WT: ++++

B31: I283T-N285P-N287T-Q290E-S322T-N388M-K394R-i421aT-C430A-L432F-L434W-S436N-dG462 (protein)
chain: B1 chain with I283T, N285P, V287T, Q290E, S322T, N430A
Activity relative to WT: ++++

B32: I283T-N285P-N287T-Q290E-S322T-N388M-K394R-i421aS-C430A-L432F-L434W-S436N-dG462 (protein)
chain: B1 chain with I283T, N285P, V287T, Q290E, S322T, N430A
Activity relative to WT: ++++

B33: I283T-N285P-N287T-Q290E-S322T-N388M-K394R-C430A-L432F-L434W-S436N-S439P-dG462 (protein)
chain: B1 chain with I283T, N285P, V287T, Q290E, S322T, N430A, S439P
Activity relative to WT: ++++

B34: I283T-N285P-N287T-Q290E-S322T-N388M-K394R-S429V-C430A-L432F-L434W-S436N-dG462 (protein)
chain: B1 chain with I283T, N285P, V287T, Q290E, S322T, S429V, N430A
Activity relative to WT: ++++
